In patent publication US20120271036A1 (UNIVERSITY OF ROCHESTER, published 2012):

B2: BC: EloB (1-118) / EloC (17-112) heterodimer (other)
chain 1: MGDVFLMIRRHKTTIFTDAKESSTVFELKRIVEGILKRPPDEQRLYKDDQLLDDGKTLGECGFTSQTARPQAPATVGLAFRADDTFEALCIEPFSSPPELPDVMKPQDSGSSANEQAVQENLYFQ
chain 2: MGYVKLISSDGHEFIVKREHALTSGTIKAMLSGPGQFAENETNEVNFREIPSHVLSKVCMYFTYKVRYTNSSTEIPEFPIAPEIALELLMAANFLDC
notes: also called EloBC; EloBC heterodimer

Assays:
[1] = target: T1, BCvif95-155: EloB (1-118) / EloC (17-112) / Vif (95-155) (human; HIV-1 HXB2, UniProt P69723 95-155); assay: ITC, 30 C
T1 construct: range 95-155

[2] = target: T2, EloB(1-104)/EloC(17-112)/Vif(102-173) (human; HIV-1 (group M, subtype B), UniProt Q15370 2-104; Q15369 18-112; P31820 102-173); assay: ITC, 30 C
[3] = target: T3, EloB(1-118)/EloC(17-112)/Vif(95-173) (human; HIV-1 (group M, subtype B), UniProt Q15370 2-118; Q15369 18-112; P31820 95-173); assay: ITC, 30 C
[4] = target: T4, BCvif95-160: EloB (1-118) / EloC (17-112) / Vif (95-160) (human; HIV-1 HXB2, UniProt P69723 95-160); assay: ITC, 30 C
T4 construct: range 95-160

[5] = target: T5, BCvif95-192: EloB (1-118) / EloC (17-112) / Vif (95-192) (human; HIV-1 HXB2, UniProt P69723 95-192)
[6] = target: B2
[7] = target: T2, EloB(1-104)/EloC(17-112)/Vif(102-173)
[8] = target: T3, EloB(1-118)/EloC(17-112)/Vif(95-173)
[9] = target: T4, BCvif95-160: EloB (1-118) / EloC …
[10] = target: T6, BCvifVF: EloB (1-118) / EloC (17-112) / vif (95-192) (A123V, L124F) (human; HIV-1 HXB2, UniProt P69723 95-192)
[11] = target: T7, BCvifSS: EloB (1-118) / EloC (17-112) / vif (95-192) (A123S, L124S) (human; HIV-1 HXB2, UniProt P69723 95-192)
[12] = target: T7, BCvifSS: EloB (1-118) / EloC (17-112) / …; assay: ITC, 30 C; A123S/L124S mutant
[13] = target: T6, BCvifVF: EloB (1-118) / EloC (17-112) / …; assay: ITC, 30 C; A123V/L124F mutant
[14] = target: T5, BCvif95-192: EloB (1-118) / EloC …; assay: ITC, 30 C; Cul5(N) titrated into the complex
[15] = target: B2; assay: ITC, 30 C; untagged Cul5(N) titrated into EloBC
[16] = target: T5, BCvif95-192: EloB (1-118) / EloC …; assay: ITC, opposite injection order; BCvif95-192 titrated into Cul5(N)
[17] = target: the molecule itself; assay: sedimentation velocity AUC; self-association

B1: Cul5(N), human Cullin5 residues 2-384 (V341R, L345D) after removal of GST (other)
chain: GPMHMGGSTSNLLKNKGSLQFEDKWDFMRPIVLKLLRQESVTKQQWFDLFSDVHAVCLWDDKGPAKIHQALKEDILEFIKQAQARVLSHQDDTALLKAYIVEWRKFFTQCDILPKPFCQLEITLMGKQGSNKKSNVEDSIVRKLMLDTWNESIFSNIKNRLQDSAMKLVHAERLGEAFDSQLVIGVRESYVNLCSNPEDKLQIYRDNFEKAYLDSTERFYRTQAPSYLQQNGVQNYMKYADAKLKEEEKRALRYLETRRECNSVEALMECCVNALVTSFKETILAECQGMIKRNETEKLHLMFSLMDKVPNGIEPMLKDLEEHIISAGLADMVAAAETITTDSEKYREQLDTLFNRFSKLVKEAFQDDPRFLTARDKAYKAVVNDATIFK
notes: also called untagged Cul5(N)
[1]
  Kd: 0.213 µM
[2]
  Kd: 0.288 µM
[3]
  Kd: 0.337 µM
[4]
  Kd: 0.285 µM
[5]
  ΔH: -5210
  ΔS: 12.6
[6]
  N: 0.924
  ΔH: -9200
  ΔS: -6.39
[7]
  N: 0.826
  ΔH: -4950
  ΔS: 13.6
[8]
  N: 0.869
  ΔH: -5630
  ΔS: 11.1
[9]
  ΔH: -5090
  ΔS: 13
[10]
  ΔH: -4550
  ΔS: 13.1
[11]
  ΔH: -7380
  ΔS: 4.97
[12]
  Kd: 0.397 µM
[13]
  Kd: 0.847 µM
[14]
  Kd: 0.327 µM
[15]
  Kd: 6.35 µM
[16]
  Kd: 0.42 µM

## B2
[17]
  binding result: no binding (tested: 0.19, 0.37, and 1.88 mg ml^-1)
